Consider six molecules from US10119122B2, “Differentiation and expansion of endothelial cells from pluripotent stem cells and the in vitro formation of vasculature like structures” (Academisch Ziekenhuis Leiden, priority 2013, dated 2018).

“Also recorded” adds a separate entry of the source.

Common to all, as to assay type: cell-based, human
The test system of assay [1] is control iPSC-derived ECs co-cultured with control iPSC-derived pericytes/mesenchymal cells. Kind of assay: 2D endothelial-pericyte co-culture sprouting assay, control ECs. Particulars: for formation of vascular/endothelial sprouts: TGFβ3 1 ng/ml, compared to control condition. How it is done: (§1) The endothelial capillary-like network formation assay was carried out as previously described but with major modifications (Evensen et al., 2013). These included using both ECs and pericytes derived from human iPSC lines. This is described in more detail elsewhere (Orlova et al., manuscript in preparation). ECs were labelled with the general cytoplasmic labeling dye (PKH-26). For the sprouting assay, 12,000 ECs derived from both control and diseased lines were plated with 50,000 control iPSC-derived pericytes/well on 0.1% gelatin coated 96-well plates in EGM-2 (Lonza, CC-3162). Next day and on the day 4 of the assay, medium was replaced with new EGM-2 media containing tested compounds as indicated in the figure legends. Endothelial-pericyte co-culture was terminated on day 7 of the assay each well immunofluorescently stained for quantification, as follows: co-cultures were fixed with the 4% paraformaldehyde (PFA), permeabilized with the 0.1% TX-100 and blocked with the normal goat serum (Dako). Endothelial sprouts were visualized with the mouse anti-CD31 (Dako, 1:200). In some experiment with the mouse blocking antibodies, rabbit anti-CD31 (Scbt, 1:200) was used instead. Pericytes were visualized with antibodies against SM22 (Sigma, 1:200). The endothelial network was imaged with the BD Pathway 855 system using the 4× or 10× objective and 2×2 (or 3×3) Montage mode. Total area covered by the endothelial sprouts was quantified with the protocol developed within cell image analysis software CellProfiller (Broad Institute). High magnification images were acquired with the SP5 confocal microscope, using 10× and 40× objectives.
A two-dimensional co-culture system was first established in vitro consisting of control iPSC-derived ECs cultured with the control iPSC-derived mesenchymal cells (FIG. 10A). The protocol was optimized and adapted to the BD Pathway 855 imaging system, based on the protocol initially described for the co-culture of HUVECs and vascular SMCs (vSMCs) (Evensen et al., 2013). On day 7 of the co-culture, iPSC-derived EC had organized and formed spouts on the top mesenchymal cells, as evidenced by immunofluorescent staining with the EC-specific CD31 and SMC-specific SM22 markers (FIG. 10B).
(§2) Endothelial cell-pericyte co-culture was performed as described previously (Evensen et al., 2013) but using conditions optimized for iPSC-derived ECs and pericytes as described (Orlova et al., manuscript in preparation). In brief, 12,000 and 50,000 iPSC-derived ECs and pericytes were plated, respectively, in each well of a 96-well plate. Next day the co-cultures were refreshed with the specific treatment conditions indicated. The co-culture was fixed on day 7, and EC sprouts stained with anti-CD31 antibody (1:200, Dako) (as described in Orlova et al., manuscript in preparation). Pericytes were visualized with the anti-SM22 antibody (1:200, Abcam). The BD Pathway 855 system was used for automatic image acquisition, with the 4× objective and 2×2 (or in some cases 3×3) montage mode. CellProfiller (Broad Institute) custom pipeline was used for the image quantification.

The subject of another assay is hPSCs. Kind of assay: Monolayer endothelial differentiation of hPSCs in defined medium, flow cytometry at day 10. The note with it: additional Activin 25 ng/ml on days 0-3 (BVAC vs BVC); range of iPSC lines; data not shown. The text has this:
hiPSC lines were generated from Fib or BOECs using conditional lentiviral vectors containing the four transcription factors oct4, c-myc, Klf4 and Sox2, and characterized as described previously (Dambrot et al., 2013; Freund et al., 2008; Orlova et al., manuscript in preparation). hiPSCs and hESC (line HES-NL4; (van de Stolpe et al., 2005)) were routinely maintained on growth factor reduced MATRIGEL®-(BD, 354230) coated plates in mTeSR media (StemCell Technologies, 05850) and passaged mechanically. Differentiation was induced three days after passaging colonies by replacing mTeSR medium with the differentiation media based on BPEL (without PVA) (Ng et al., 2008) with timed addition of the following growth factors: 25 ng/ml ActivinA (Miltenyi, 130-095-547), 30 ng/ml BMP4 (Miltenyi, 130-095-549), VEGF165 (R&D Systems, 293-VE) and small molecule inhibitor CHIR99021 (Tocris, 4423). At day 3 and day 7 of differentiation, the media was refreshed with BPEL containing VEGF and 5 μM SB43152 (Tocris, 1614) only.
Cells were dissociated with TrypLE Select and washed once with the FACs buffer with the 10% FBS, followed by the single wash with the FACs buffer. […] In some experiment samples were analyzed with the MACSQuant VYB (Miltenyi). […]
Background: A flow cytometer gives signals particle by particle.

For assay [2], the system named is HHT1-iPSC-derived ECs co-cultured with control iPSC-derived pericytes. Kind of assay: 2D endothelial-pericyte co-culture sprouting assay, HHT1 patient ECs. The note with it: day 7, HHT1-iPSC ECs; for formation of the sprouting network: BMP9 1 ng/ml; for formation of endothelial sprouts: TGFβ3 1 ng/ml. How it is done:
as §1
It was hypothesized that this system might be useful for distinguishing […] versus paracrine effects of endoglin deficiency in HHT1-iPSCs-derived ECs. Therefore, ECs from HHT-iPSC lines in the co-culture assay combined with the pericytes derived from the control iPSCs were examined. Little difference was observed between ECs from HHT1 and control iPSCs in co-culture. ECs from the patient harboring the 1083delAA and IVS 5+2 (T>C) mutation similar endothelial sprout formation as the controls (FIGS. 11A and 11B).
as §2

Assay [3] relates to iPSC-derived pericytes/mesenchymal cells. Kind of assay: Contractile smooth muscle marker expression in iPSC-derived pericytes/mesenchymal cells. The note with it: stimulation with TGFb (FIG. 16). How it is done: Our differentiation system facilitates simultaneous derivation and expansion of pericytes and ECs from iPSC lines. […] Thus, a renewable source of pericytes/SMCs was created for co-culture with ECs that would in principle be able to simulate endothelial-pericyte interaction in humans.
iPSC-derived pericytes/mesenchymal cells were derived from the CD31− fraction emerging during the endothelial differentiation protocol. CD31− cells were plated on gelatin coated plates in EGM-2 media (Lonza). After 4 days medium was replaced by DMEM+10% FBS supplemented with TGFβ3 (2 ng/ml, Peprotech) and PDGF-BB (4 ng/ml, Peprotech). iPSC-derived pericytes were routinely maintained on gelatin-coated plates in DMEM+10% FBS. Cells were characterized for the expression of pericyte and mesenchymal cell-specific markers by flow cytometry and immunofluorescent staining as describe above.
ECs and pericytes were cultured as described above on gelatin coated coverslips. Cells were fixed with 4% PFA, permeabilized and stained with the following antibodies as described (Orlova et al., Manuscript in preparation): anti-Ve-Cadherin (1:200, CellSignaling), anti-vWF (1:200, Dako), anti-CD31 (1:200, Dako), anti-SM22a (1:200, Abcam), anti-SMA (1:400, Sigma), anti-CNN1 (1:200, Sigma).

Consider `C[C@H](NC(=O)Cc1cc(F)cc(F)c1)C(=O)N[C@H](C(=O)OC(C)(C)C)c1ccccc1` [DAPT, reference compound], for which the “number of tip cells” value in assay [1] (2D co-culture system with DAPT, 46 without DAPT) is listed as 64.

For the molecule `c1ccc2c(-c3cnn4cc(-c5ccc(N6CCNCC6)cc5)cnc34)ccnc2c1` [LDN1931189, reference compound], the sprout formation entry in assay [1] (LDN1931189, inhibition of ALK1/ALK2/ALK3 pathway, day 7) is given as “no effect on sprout formation”.

B1: TRC105: anti-endoglin blocking antibody, in clinical trial as an anti-tumor therapy (antibody, chains of the INN, looked up, V domains shown)
VH: EVKLEESGGGLVQPGGSMKLSCAASGFTFSDAWMDWVRQSPEKGLEWVAEIRSKASNHATYYAESVKGRFTISRDDSKSSVYLQMNSLRAEDTGIYYCTRWRRFFDSWGQGTTLTVSS
VL: QIVLSQSPAILSASPGEKVTMTCRASSSVSYMHWYQQKPGSSPKPWIYATSNLASGVPVRFSGSGSGTSYSLTISRVEAEDAATYYCQQWSSNPLTFGAGTKLELK
For B1, the “formation of sprouts by ECs” value in assay [1] (TRC105 120 μg/ml, day 7) is given as “reduction in the formation of the sprouts; also recorded: significantly reduced sprouting”. For the same molecule, in assay [1] (TRC105, co-culture assay), the “surface area covered by ECs” value is recorded as “significantly reduced”.

B2: Activin: growth factor ActivinA (Miltenyi), 25 ng/ml in mesoderm induction medium (protein, UniProt P08476 311-426, looked up)
Inhibin beta A chain: GLECDGKVNICCKKQFFVSFKDIGWNDWIIAPSGYHANYCEGECPSHIAGTSGSSLSFHSTVINHYRMRGHSPFANLKSCCVPTKLRPMSMLYYDDGQNIIKKDIQNMIVEECGCS
modifications: Inhibin beta A chain
As to B2, the “robustness and reproducibility of differentiation” value with hPSCs is “more robust and reproducible differentiation”.

B3: BMP9: BMP9 (R&D), ligand for signaling in ECs, circulating vascular quiescence factor (protein, UniProt Q9UK05 320-429, looked up)
Growth/differentiation factor …: SAGAGSHCQKTSLRVNFEDIGWDSWIIAPKEYEAYECKGGCFFPLADDVTPTKHAIVQTLVHLKFPTKVGKACCVPTKLSPISVLYKDDMGVPTLKYHYEGMSVAECGCR
With B3, the “formation of the sprouting network” value was “selective inhibitory effect in HHT1-iPSC-derived ECs only” in assay [2]; “significant inhibition” in assay [2] (listed as BMP-9); “no effect at all” in assay [1] (BMP9 1 ng/ml, day 7, control iPSC ECs, listed as BMP-9).

B4: TGFβ3: growth factor TGFβ3 (Peprotech), transforming growth factor β ligand (protein, UniProt P10600 301-412, looked up)
Transforming growth factor …: ALDTNYCFRNLEENCCVRPLYIDFRQDLGWKWVHEPKGYYANFCSGPCPYLRSADTTHSTVLGLYNTLNPEASASPCCVPQDLEPLTILYYVGRTPKVEQLSNMVVKSCKCS
modifications: Transforming growth factor beta-3
notes: growth factor TGFβ3 (Peprotech), transforming growth factor β ligand
Regarding B4, in assay [3], the “up-regulation of vSMC contractile markers” value was “up-regulation of vSMC markers”. The entries for the “formation of endothelial sprouts” value in assay [2] and in assay [2] (listed as TGFβ) were “inhibits sprout formation in all lines” and “inhibited formation of the endothelial sprouts; also recorded: inhibited endothelial network formation”, respectively. Moreover, the “formation of vascular/endothelial sprouts” value in assay [1] (day 7) is listed as “dramatic reduction in the formation of the vascular sprouts; also recorded: inhibits sprout formation in all lines”; in assay [1] (day 7, listed as TGFβ) it was “inhibited endothelial network formation”.
